From US20240182592A1 (CHIA TAI TIANQING PHARMACEUTICAL GROUP, published 2024)

T1: human BCMA on cells (human, UniProt Q02223 1-184)
T1 sequence (looked up): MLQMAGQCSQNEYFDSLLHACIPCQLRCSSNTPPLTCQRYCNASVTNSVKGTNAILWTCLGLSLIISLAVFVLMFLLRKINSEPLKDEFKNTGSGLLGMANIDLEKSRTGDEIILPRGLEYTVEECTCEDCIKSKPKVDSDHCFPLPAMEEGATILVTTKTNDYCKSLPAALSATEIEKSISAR

T2: human BCMA protein (human, UniProt Q02223 1-54, limits assumed)
T2 construct: also called hBCMA; Antigen BCMA
T2 sequence (looked up): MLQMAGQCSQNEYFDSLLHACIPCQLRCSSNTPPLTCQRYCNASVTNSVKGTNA


How the values were obtained:
[1] = target: T3, human CD3e (Acro, Cat. No. CDE-H5223) (human, UniProt P07766 23-126); experiment: SPR (Biacore T200), antibody captured by anti-hIgG, human CD3e as analyte, 1:1 model
T3 construct: also called human CD3e protein; hCD3e
Procedure: (§1) The affinity of the test antibody for human CD3e or human BCMA protein was determined by Biacore T200 (GE) as follows:
(§2) The response signals were detected in real time using Biacore software, and association and dissociation curves were obtained. The buffer used in the experiment was Biacore universal buffer (137 mM NaCl, 2.7 mM KCl, 10 mM Na₂HPO₄.12H₂O, 1.8 mM KH₂PO₄. 0.05% surfactant P-20 (w/v), pH 7.4). […] The flow rate in the flow cell was at 50 μL/min, the association was performed for 240 s, the dissociation was performed for 1400 s, the regeneration was performed using 3 M MgCl (GE) for 60 s, and the baseline was stable. Results were obtained by calculation according to the affinity and kinetics 1:1 binding mode in biacore evaluation software.

[2] = target: T4, T cell surface CD3 (human, UniProt P07766 23-207); experiment: flow cytometry, human CD3+ T cells
T4 construct: whole, on cells; also called CD3^+ T cells
Procedure: Human PBMC cells were sorted for CD3⁺ T cells using CD3 magnetic beads (Miltenyi, catalog No. 130-097-043): the cryopreserved PBMCs were thawed, and washed by centrifugation twice for counting. Running buffer (MACS, catalog No. 130-091-221) was added in a cell-to-buffer ratio of 10⁷:80 μL, CD3 beads were added in a cell-to-bead ratio of 10⁷:20 μL, and the mixture was mixed well and incubated at 4° C. for 15 min. The cells were washed with buffer in a cell-to-buffer ratio of 10⁷:1-2 mL. After centrifugation, the supernatant was discarded, and 500 μL of buffer was added to resuspend the cell pellet. The LS sorting column (Miltenyi, catalog No. 130-042-401) was placed on the MidiMACS Starting Kit (LS) magnetic rack (Miltenyi, catalog No. 130-091-051). After rinsing, the cell suspension was added and washed thrice. The LS sorting column was removed from the magnetic rack and placed on a clean centrifuge tube and 5 mL buffer was added to collect the sorted CD3⁺ T cells. After counting, the CD3⁺ T cells were adjusted to a cell density of 5×10⁶-10×10⁶ cells/mL using RPMI medium (Hyclone, catalog No. SH30809.01) containing 2% FBS (fetal bovine serum) and seeded in a 96-well U-bottom cell culture plate (Costar, catalog No. 3799) at 50 μL per well. The test antibodies at different concentrations were prepared using the medium described above. […] The antibodies at different concentrations were added to the 96-well cell culture plate described above at 50 μL per well, mixed well and incubated at 4° C. for 1 h. The cells were washed with pre-cooled running buffer (MACS, catalog No. 130-091-221), and the supernatant was discarded. Pre-cooled fluorescent labeled goat anti-human IgG antibodies (Jackson, catalog No. 109-116-170) were added, and the cells were resuspended at 100 μL per well, mixed well and incubated at 4° C. for 30 min. After washing, 100 μL of pre-cooled running buffer was added to resuspend the cells.

[3] = target: T1, human BCMA on cells; experiment: cell-based or functional assay
[4] = target: T1, human BCMA on cells; experiment: flow cytometry, NCI-H929 cells
Procedure: (§3) NCI-H929 cells (BCMA+++), MM1S cells (BCMA++), and RPMI-8226 cells (BCMA+) in the logarithmic growth phase were taken, adjusted to a cell density of 5×10⁶-10×10⁶ cells/mL using RPMI medium (Hyclon, catalog No. SH30809.01) containing 2% FBS (fetal bovine serum), respectively, and seeded in a 96-well U-bottom cell culture plate (Costar, catalog No. 3799) at 50 μL per well. The test antibodies at different concentrations were prepared using the medium described above. […] The antibodies at different concentrations were added to the 96-well cell culture plate described above at 50 μL per well, mixed well and incubated at 4° C. for 1 h. The cells were washed with pre-cooled running buffer (MACS, catalog No. 130-091-221), and the supernatant was discarded. Pre-cooled fluorescent labeled goat anti-human IgG antibodies (Jackson, catalog No. 109-116-170) were added, and the cells were resuspended at 100 μL per well, mixed well and incubated at 4° C. for 30 min. After washing, 100 μL of pre-cooled running buffer was added to resuspend the cells. The cells were mixed well and collected while flowing on an Attune™ NxT flow cytometer, and the data was analyzed using Graphpad Prism5 software. FIGS. 7-9 and Table 11 show the binding ability of the anti-BCMA/anti-CD3 multispecific antibodies to NCI-H929 cells (BCMA+++), MM1S cells (BCMA++), and RPMI-8226 cells (BCMA+).

[5] = target: T1, human BCMA on cells; experiment: cell-based or functional assay; remark: listed apart in the source
[6] = target: T1, human BCMA on cells; experiment: flow cytometry, MM1S cells
Procedure: as §3

[7] = target: T2, human BCMA protein; experiment: SPR (Biacore T200), antibody captured by anti-hIgG, human BCMA as analyte, 1:1 model
Procedure: as §1, §2

[8] = target: T1, human BCMA on cells; experiment: cell-based or functional assay; remark: listed apart in the source

T4 sequence (P07766 23-207): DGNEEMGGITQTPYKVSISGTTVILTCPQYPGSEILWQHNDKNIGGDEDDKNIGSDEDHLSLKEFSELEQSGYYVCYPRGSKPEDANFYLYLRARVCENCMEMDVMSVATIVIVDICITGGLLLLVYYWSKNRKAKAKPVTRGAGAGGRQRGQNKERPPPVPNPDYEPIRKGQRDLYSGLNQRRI
T3 sequence (P07766 23-126 limits assumed): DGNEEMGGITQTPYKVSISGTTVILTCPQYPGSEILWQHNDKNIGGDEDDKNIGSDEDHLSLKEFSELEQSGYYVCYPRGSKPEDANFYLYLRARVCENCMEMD

Binder	Kd [1]	EC50 [2]	Top(MFI) [2]	Lysis EC50, MM1S cells with human PBMCs (E:T 10:1, 24 h, LDH release) [3]	Maximum lysis rate, MM1S cells with human PBMCs [3]	EC50 [4]	Top(MFI) [4]	Lysis EC50, NCI-H929 cells with human PBMCs (E:T 10:1, 24 h, LDH release) [5]	Maximum lysis rate, NCI-H929 cells with human PBMCs [5]	EC50 [6]	Top(MFI) [6]	Kd [7]	Lysis EC50, RPMI-8226 cells with human PBMCs (E:T 10:1, 24 h, LDH release) [8]	Maximum lysis rate, RPMI-8226 cells with human PBMCs [8]
anti-BCMA/anti-CD3 multispecific antibody PC3 (bispecific antibody, human IgG1, lambda, L234A L235A, Trivalent; three chains; human IgG1 knobs-into-holes Fc) QVQLVESGGGLVQPGGSLRLSCAASGFTFNSACMGWFRQAPGKGREGVSRIETGYGGTVYADSVKGRFTISRDNSKNTVYLQMNSLRAEDTAVYYCAAKRSWCTPTWWHELDYNYWGQGTQVTVSSGEPKSSDKTHTCPPCPAPEAAGGPSVFLFPPKPKDTLMISRTPEVTCVVVDVSHEDPEVKFNWYVDGVEVHNAKTKPREEQYNSTYRVVSVLTVLHQDWLNGKEYKCKVSNKALAAPIEKTISKAKGQPREPQVCTLPPSREEMTKNQVSLSCAVKGFYPSDIAVEWESNGQPENNYKTTPPVLDSDGSFFLVSKLTVDKSRWQQGNVFSCSVMHEALHNHYTQKSLSLSPGK heavy: EVQLVESGGGLVQPGGSLRLSCAASGFTFNTYAMNWVRQAPGKGLEWVARIRSKYNNYATYYADSVKDRFTISRDDSKNTAYLQMNNLKTEDTAMYYCVRHGNFGNSYVSWFAYWGQGTLVTVSSASTKGPSVFPLAPSSKSTSGGTAALGCLVKDYFPEPVTVSWNSGALTSGVHTFPAVLQSSGLYSLSSVVTVPSSSLGTQTYICNVNHKPSNTKVDKKVEPKSCDKTHTCPPCPAPEAAGGPSVFLFPPKPKDTLMISRTPEVTCVVVDVSHEDPEVKFNWYVDGVEVHNAKTKPREEQYNSTYRVVSVLTVLHQDWLNGKEYKCKVSNKALAAPIEKTISKAKGQPREPQVYTLPPCREEMTKNQVSLWCLVKGFYPSDIAVEWESNGQPENNYKTTPPVLDSDGSFFLYSKLTVDKSRWQQGNVFSCSVMHEALHNRFTQKSLSLSPGK light: QVQLVESGGGLVQPGGSLRLSCAASGYSSNVACMAWYRQAPGKGLEWVATIVADFGTTNYAASVKGRFTISQDNSKNTVYLQMNSLRAEDTAVYYCAATQRGGIDWCDEINYWGQGTLVTVSSGGGGSELVVTQEPSLTTSPGGTVTLTCRSSTGAVTTSNYANWVQQKPGQAPRGLIGGTNKRAPGTPARFSGSLLGGKAALTITGVQPEDEAEYYCALWYSNLWVFGGGTKLTVLGQPKANPTVTLFPPSSEELQANKATLVCLISDFYPGAVTVAWKADGSPVKAGVETTKPSKQSNNKYAASSYLSLTPEQWKSHRSYSCQVTHEGSTVEKTVAPTECS	1170 pM	85800 pM	98400 MFI	40.7 pM	36%	837 pM	223000 MFI	187 pM	35%	338 pM	124000 MFI	34.7 pM	14.2 pM	39%
anti-BCMA/anti-CD3 multispecific antibody BC24 (bispecific antibody, human IgG1, lambda, L234A L235A, Trivalent: 1A10 VHH and 1A11 VHH in tandem on one Fc polypeptide, anti-CD3 Fab on the other; human IgG1 knobs-into-holes Fc) QVQLVESGGGSVQAGGSLRLSCAASGYSSNVACMAWYRQAPGKEREWVATIVADFGTTNYAASVKGRFTISQDNAKNTVYLQMNSLKPEDSAMYYCAATQRGGIDWCDEINYWGQGTLVTVSSGGGGSGGGGSQVQLVESGGGSVQAGGSLRLSCAASGVTFNSACMGWFRQAPGKEREGVARIETGYGGTVYADSVKGRFTISRDNAKNTVYLQMNSLKPEDTAMYYCAAKRSWCTPTWWHELDYNYWGQGTQVTVSSGEPKSSDKTHTCPPCPAPEAAGGPSVFLFPPKPKDTLMISRTPEVTCVVVDVSHEDPEVKFNWYVDGVEVHNAKTKPREEQYNSTYRVVSVLTVLHQDWLNGKEYKCKVSNKALAAPIEKTISKAKGQPREPQVCTLPPSREEMTKNQVSLSCAVKGFYPSDIAVEWESNGQPENNYKTTPPVLDSDGSFFLVSKLTVDKSRWQQGNVFSCSVMHEALHNHYTQKSLSLSPGK heavy: EVQLVESGGGLVQPGGSLRLSCAASGFTFNTYAMNWVRQAPGKGLEWVARIRSKYNNYATYYADSVKDRFTISRDDSKNTAYLQMNNLKTEDTAMYYCVRHGNFGNSYVSWFAYWGQGTLVTVSSASTKGPSVFPLAPSSKSTSGGTAALGCLVKDYFPEPVTVSWNSGALTSGVHTFPAVLQSSGLYSLSSVVTVPSSSLGTQTYICNVNHKPSNTKVDKKVEPKSCDKTHTCPPCPAPEAAGGPSVFLFPPKPKDTLMISRTPEVTCVVVDVSHEDPEVKFNWYVDGVEVHNAKTKPREEQYNSTYRVVSVLTVLHQDWLNGKEYKCKVSNKALAAPIEKTISKAKGQPREPQVYTLPPCREEMTKNQVSLWCLVKGFYPSDIAVEWESNGQPENNYKTTPPVLDSDGSFFLYSKLTVDKSRWQQGNVFSCSVMHEALHNRFTQKSLSLSPGK light: ELVVTQEPSLTTSPGGTVTLTCRSSTGAVTTSNYANWVQQKPGQAPRGLIGGTNKRAPGTPARFSGSLLGGKAALTITGVQPEDEAEYYCALWYSNLWVFGGGTKLTVLGQPKANPTVTLFPPSSEELQANKATLVCLISDFYPGAVTVAWKADGSPVKAGVETTKPSKQSNNKYAASSYLSLTPEQWKSHRSYSCQVTHEGSTVEKTVAPTECS	286 pM	38300 pM	163000 MFI	9.37 pM	21%	1560 pM	186000 MFI	21.8 pM	40%	535 pM	107000 MFI	62.7 pM	11.3 pM	29%
